The target in the test is T1, D3 fragment of DROSHA (amino acids 390–1365) (human, UniProt Q9NRR4 390-1365).
T1 sequence (looked up): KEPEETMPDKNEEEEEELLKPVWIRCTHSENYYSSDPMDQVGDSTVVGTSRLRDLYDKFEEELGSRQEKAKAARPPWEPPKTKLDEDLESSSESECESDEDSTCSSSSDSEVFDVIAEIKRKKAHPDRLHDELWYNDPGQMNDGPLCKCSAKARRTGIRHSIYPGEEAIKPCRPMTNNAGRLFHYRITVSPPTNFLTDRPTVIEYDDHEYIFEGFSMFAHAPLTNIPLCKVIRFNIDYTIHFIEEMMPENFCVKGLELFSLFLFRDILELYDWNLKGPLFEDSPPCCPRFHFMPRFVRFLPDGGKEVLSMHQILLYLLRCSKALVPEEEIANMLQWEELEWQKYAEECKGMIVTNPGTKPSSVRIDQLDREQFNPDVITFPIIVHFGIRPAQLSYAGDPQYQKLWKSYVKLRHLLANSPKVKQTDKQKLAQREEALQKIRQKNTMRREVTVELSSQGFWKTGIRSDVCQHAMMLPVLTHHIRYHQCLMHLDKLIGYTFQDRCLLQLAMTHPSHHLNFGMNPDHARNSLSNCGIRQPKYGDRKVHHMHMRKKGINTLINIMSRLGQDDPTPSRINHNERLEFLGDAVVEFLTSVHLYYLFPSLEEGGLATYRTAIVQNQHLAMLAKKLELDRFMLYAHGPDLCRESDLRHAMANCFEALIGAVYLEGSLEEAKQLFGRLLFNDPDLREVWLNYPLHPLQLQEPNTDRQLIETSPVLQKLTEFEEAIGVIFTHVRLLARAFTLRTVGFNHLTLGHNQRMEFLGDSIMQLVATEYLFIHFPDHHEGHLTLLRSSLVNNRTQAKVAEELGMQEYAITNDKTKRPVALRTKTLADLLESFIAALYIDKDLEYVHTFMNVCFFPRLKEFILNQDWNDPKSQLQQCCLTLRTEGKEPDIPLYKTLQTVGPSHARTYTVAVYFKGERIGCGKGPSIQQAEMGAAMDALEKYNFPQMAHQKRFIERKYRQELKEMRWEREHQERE
Description: reconstitution by mixing purified proteins.

This is an account of results in publication PMC10770632 (STAR Protocols, 2023).

B1: G4 fragment of DGCR8 (amino acids 285–750), dimeric (domain or fragment, human, UniProt Q8WYQ5 285-750, looked up)
chain: MTKIKTVLKSRGRPPTEPLPDGWIMTFHNSGVPVYLHRESRVVTWSRPYFLGTGSIRKHDPPLSSIPCLHYKKMKDNEEREQSSDLTPSGDVSPVKPLSRSAELEFPLDEPDSMGADPGPPDEKDPLGAEAAPGALGQVKAKVEVCKDESVDLEEFRSYLEKRFDFEQVTVKKFRTWAERRQFNREMKRKQAESERPILPANQKLITLSVQDAPTKKEFVINPNGKSEVCILHEYMQRVLKVRPVYNFFECENPSEPFGASVTIDGVTYGSGTASSKKLAKNKAARATLEILIPDFVKQTSEEKPKDSEELEYFNHISIEDSRVYELTSKAGLLSPYQILHECLKRNHGMGDTSIKFEVVPGKNQKSEYVMACGKHTVRGWCKNKRVGKQLASQKILQLLHPHVKNWGSLLRMYGRESSKMVKQETSDKSVIELQQYAKKNKPNLHILSKLQEEMKRLAEEREETR
On to B1, for which the binding result is on record as “binds”.
